In patent US20130130985A1 (published 2013):
Bridges are numbered along the chain shown (N, C = ends). Where no end group is shown, it is not given here. [ ]: non-standard residue; d: D form. Sec = N[C@@H](C[SeH])C(=O)O

Assays:
human oxytocin receptor [1] = molecular target: T1, human oxytocin receptor (human, UniProt P30559 1-389); experiment: cell-based or functional assay
T1 sequence (looked up): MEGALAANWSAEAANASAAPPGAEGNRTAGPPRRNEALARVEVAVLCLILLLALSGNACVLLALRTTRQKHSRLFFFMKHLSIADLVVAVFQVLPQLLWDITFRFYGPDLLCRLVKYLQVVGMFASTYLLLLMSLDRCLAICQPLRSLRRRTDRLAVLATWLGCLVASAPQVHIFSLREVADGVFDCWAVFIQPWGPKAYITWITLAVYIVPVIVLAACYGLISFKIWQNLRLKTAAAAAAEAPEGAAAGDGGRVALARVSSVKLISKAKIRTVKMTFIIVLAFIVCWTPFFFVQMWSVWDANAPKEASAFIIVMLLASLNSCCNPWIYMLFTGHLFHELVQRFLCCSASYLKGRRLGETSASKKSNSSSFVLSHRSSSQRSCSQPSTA

[2] = molecular target: T2, human vasopressin V1a receptor (human, UniProt P37288 1-418); experiment: cell-based or functional assay
human oxytocin receptor [3] = molecular target: T1, human oxytocin receptor; experiment: cell-based or functional assay; remark: listed apart in the source
[4] = molecular target: T2, human vasopressin V1a receptor; experiment: cell-based or functional assay; remark: listed apart in the source
[5] = molecular target: human vasopressin V2 receptor (human, UniProt P30518 1-371); experiment: cell-based or functional assay
human oxytocin receptor [6] = molecular target: T1, human oxytocin receptor; experiment: radioligand displacement (3H-OT), SPA beads, COS-1 membranes
[7] = molecular target: T3, human vasopressin V1b receptor (human, UniProt P47901 1-424); experiment: cell-based or functional assay
T3 sequence (looked up): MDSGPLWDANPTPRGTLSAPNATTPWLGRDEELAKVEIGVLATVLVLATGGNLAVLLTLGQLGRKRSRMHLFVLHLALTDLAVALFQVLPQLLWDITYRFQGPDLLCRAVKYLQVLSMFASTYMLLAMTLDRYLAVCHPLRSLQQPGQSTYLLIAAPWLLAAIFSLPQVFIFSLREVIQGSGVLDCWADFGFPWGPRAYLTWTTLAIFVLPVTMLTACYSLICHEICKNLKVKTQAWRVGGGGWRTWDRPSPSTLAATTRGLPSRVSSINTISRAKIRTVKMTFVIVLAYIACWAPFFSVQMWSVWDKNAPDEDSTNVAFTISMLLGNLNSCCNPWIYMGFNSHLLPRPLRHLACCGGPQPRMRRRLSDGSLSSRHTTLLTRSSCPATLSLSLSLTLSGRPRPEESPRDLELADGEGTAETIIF

[8] = molecular target: T3, human vasopressin V1b receptor; experiment: cell-based or functional assay; remark: listed apart in the source

T2 sequence (P37288 whole entry): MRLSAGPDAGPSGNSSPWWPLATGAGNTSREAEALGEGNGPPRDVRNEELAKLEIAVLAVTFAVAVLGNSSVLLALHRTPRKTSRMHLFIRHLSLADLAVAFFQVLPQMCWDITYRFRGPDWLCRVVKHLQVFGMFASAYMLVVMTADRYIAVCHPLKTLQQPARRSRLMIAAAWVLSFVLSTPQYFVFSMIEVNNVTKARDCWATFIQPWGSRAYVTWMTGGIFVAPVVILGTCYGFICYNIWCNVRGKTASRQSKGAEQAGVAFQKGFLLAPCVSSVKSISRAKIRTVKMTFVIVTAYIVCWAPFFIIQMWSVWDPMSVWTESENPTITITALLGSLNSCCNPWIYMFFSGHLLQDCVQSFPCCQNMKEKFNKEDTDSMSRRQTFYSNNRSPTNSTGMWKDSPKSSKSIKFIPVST

B1: [C1,6U]-OT-OH (peptide)
peptide: XYIQNXPLG
modifications: L-selenocysteine at positions 1 and 6, diselenide bridge; free C-terminal carboxylic acid
notes: also called [Se-Se]-OT-OH
Emax, IP-One HTRF assay (human oxytocin receptor [1]): 60% | EC50, IP-One HTRF assay [2]: > 100000 nM | Emax, FLIPR calcium assay (human oxytocin receptor [3]): 38% | EC50, FLIPR calcium assay [4]: > 100000 nM | EC50, cAMP accumulation assay [5]: 495 nM | Emax, cAMP accumulation assay [5]: 114% | IC50 (human oxytocin receptor [6]): 1280 nM

B2: d[C1,6U]-OT-OH (peptide)
peptide: XYIQNXPLG
modifications: by its name: desaminoselenocysteine (3-selenopropanoic acid) at position 1, L-selenocysteine at position 6, diselenide bridge; free C-terminal carboxylic acid; structure is not given
Emax, IP-One HTRF assay (human oxytocin receptor [1]): 71% | Emax, IP-One HTRF assay [7]: 63% | Emax, FLIPR calcium assay (human oxytocin receptor [3]): 49% | EC50, FLIPR calcium assay [4]: > 100000 nM | Emax, FLIPR calcium assay [8]: 58% | Emax, cAMP accumulation assay [5]: 135%

[Sec]YIQNCPLG-NH2 (bridge 1-6 via selenosulfide) [[C1U]-OT]
Emax, IP-One HTRF assay (human oxytocin receptor [1]): 84% | Emax, IP-One HTRF assay [2]: 96% | Emax, FLIPR calcium assay (human oxytocin receptor [3]): 85% | Emax, FLIPR calcium assay [4]: 90% | Emax, FLIPR calcium assay [8]: 82%

CYIQN[Sec]PLG-NH2 (bridge 1-6; also: selenosulfide bond) [[C6U]-OT]
Emax, IP-One HTRF assay (human oxytocin receptor [1]): 55% | Emax, IP-One HTRF assay [2]: 67% | Emax, FLIPR calcium assay (human oxytocin receptor [3]): 82% | Emax, FLIPR calcium assay [4]: 104% | Emax, FLIPR calcium assay [8]: 73%

CYIQNCPLX (C-terminal amide; Cys1 and Cys6 form the cyclic part (disulfide)) [Oxytocin]
Emax, IP-One HTRF assay [2]: 79% | Emax, FLIPR calcium assay [4]: 71%

CYIQNCPLG-OH (disulfide 1-6) [[S-S]-OT-OH]
Emax, IP-One HTRF assay [2]: 77%
